The target of assay [1] is tissue factor (TF) antigen (UniProt P13726). Nature of the assay: SPR; against wild-type D3H44 Fab; * estimated from the same Fab with another L chain tag.
Assay [2] shares this target. Nature of the assay: SPR (ProteOn), Fab captured on anti-penta His, TF as analyte, 1:1 fit; * estimated from the same Fab with another L chain tag.
In assay [3] the target is D3H44 light chain Q124E_Q160E_T180E. Description: SMCA: four chains co-expressed in CHO-3E7, protein A, LC-MS; competing light chain m21.
Assay [4] shares this target. Description: SMCA: four chains co-expressed in CHO-3E7, protein A, LC-MS; competing light chain m24.
In assay [5] the target is D3H44 light chain Q38E_Q124E_Q160E_T180E. Nature of the assay: SMCA: four chains co-expressed in CHO-3E7, protein A, LC-MS; competing light chain m28.
Assay [6] addresses D3H44 light chain Q124E_Q160E_T180E. Nature of the assay: SMCA: four chains co-expressed in CHO-3E7, protein A, LC-MS; competing light chain m18.
Assay [7] has the same target. Nature of the assay: SMCA: H1, H2, L1, L2 co-expressed in CHO-3E7, protein A, LC-MS; competitor light chain m44.
For assay [8] the target is unchanged. Nature of the assay: SMCA: 2 heavy + 2 light chains co-expressed, protein A, LC-MS; competing light chain m4.
The target in assay [9] is D3H44 light chain Q124E_N137K_Q160E_S174R_T180E. Description: SMCA: 2 heavy + 2 light chains co-expressed, protein A, LC-MS; competing light chain m38.
The target in assay [10] is D3H44 light chain P44F_S131K. Description: SMCA: LC-MS of protein A purified product after co-expression of H1, H2, L1, L2 in CHO-3E7; competing light chain m46.
In assay [11] the target is D3H44 light chain P44F_Q124R_Q160K_T178R. The assay is described as above.
The target of assay [12] is D3H44 light chain Q124E_V133W_S176T_T178L_T180E. Description: SMCA co-expression, LC-MS; competing light chain m6.
Assay [13] has the same target. Description: SMCA: 2 heavy + 2 light chains co-expressed, protein A, LC-MS; competing light chain m24.
For assay [14], the target named is D3H44 light chain V133G_N137K_S174R_S176R. Description: SMCA co-expression, LC-MS; competing light chain m20.
Assay [15] has the same target. Description: SMCA co-expression, LC-MS; competing light chain m24.
The target is the same in assay [16]. Nature of the assay: SMCA: 2 heavy + 2 light chains co-expressed, protein A, LC-MS; competing light chain m48.
For assay [17], the target named is D3H44 light chain Q124R_Q160K_T178R. Nature of the assay: SMCA: LC-MS of protein A purified product after co-expression of H1, H2, L1, L2 in CHO-3E7; competing light chain m48.
The next assay concerns the target D3H44 light chain Q124R. Description: SMCA: LC-MS of protein A purified product after co-expression of H1, H2, L1, L2 in CHO-3E7; competing light chain m50.
Assay [18] has as its target D3H44 light chain Q124R_Q160K_T178R. Nature of the assay: SMCA: H1, H2, L1, L2 co-expressed in CHO-3E7, protein A, LC-MS; competitor light chain m28.
In assay [19] the target is D3H44 light chain Q38R_S131K. Nature of the assay: SMCA: H1, H2, L1, L2 co-expressed in CHO-3E7, protein A, LC-MS; competitor light chain m4.
For assay [20], the target named is D3H44 light chain Q38E_Q124E_Q160E_T180E. Description: SMCA: H1, H2, L1, L2 co-expressed in CHO-3E7, protein A, LC-MS; competitor light chain m8.
The target of assay [21] is D3H44 Fab heavy chain L124E_L143E_K145M. Description: LCCA, L1:L2 DNA 1:3 normalised to 1:1, SPR of light chain tags; competitor m56.
Assay [22] has as its target D3H44 Fab heavy chain L124R_D146N_Q179K. The description is as above.
Assay [23] addresses D3H44 Fab heavy chain L124E_L143D_K145T (H1 of LCCA sets 9214, 9217, 9216, 9219, 9220, 9225, 9228, 9229).
Assay [24] concerns the target D3H44 Fab heavy chain L124E_L143E_K145M (H1 of LCCA sets 9269, 9266, 9267, 9260, 9262, 9263).
Assay [25] concerns the target D3H44 Fab heavy chain L124E_L143D_K145T (H1 of LCCA sets 9214, 9217, 9216, 9219, 9220, 9225, 9228, 9229). The source holds these as a separate data set.
Assay [26] deals with D3H44 Fab heavy chain L124E_L143E_K145M (H1 of LCCA sets 9269, 9266, 9267, 9260, 9262, 9263). The source holds these as a separate data set.
Assay [27] addresses D3H44 Fab heavy chain L124E_L143D_K145T (H1 of LCCA sets 9214, 9217, 9216, 9219, 9220, 9225, 9228, 9229). Nature of the assay: LCCA: H1 co-expressed with L1 and L2 (DNA 333:250:749 ng), His-tag capture on SPR chip, light chain tags detected with anti-HA/anti-FLAG; competitor L2 V133G_S176D_T178D_T180E.
In assay [28] the target is D3H44 Fab heavy chain L124E_L143E_K145M (H1 of LCCA sets 9269, 9266, 9267, 9260, 9262, 9263). The assay is described as above.
Assay [29] concerns the target D3H44 Fab heavy chain L124R_D146N_Q179K (H1 of LCCA sets 9358, 9359, 9357, 9351, 9352, 9353, 9354, 9350). Nature of the assay: LCCA: H1 co-expressed with L1 and L2 (DNA 333:250:749 ng), His-tag capture on SPR chip, light chain tags detected with anti-HA/anti-FLAG; competitor L1 Q124E_V133G_S176D_T178E_T180E.
In assay [30] the target is D3H44 Fab heavy chain L124E_L143D_K145T (H1 of LCCA sets 9214, 9217, 9216, 9219, 9220, 9225, 9228, 9229). Nature of the assay: LCCA: H1 co-expressed with L1 and L2 (DNA 333:250:749 ng), His-tag capture on SPR chip, light chain tags detected with anti-HA/anti-FLAG; competitor L2 Q124E_V133G_S176D_T178D_T180E.
For assay [31] the target is unchanged. Nature of the assay: LCCA: H1 co-expressed with L1 and L2 (DNA 333:250:749 ng), His-tag capture on SPR chip, light chain tags detected with anti-HA/anti-FLAG; competitor L2 Q124E_V133G_S176D_T178E_T180E.
Assay [32] addresses Trastuzumab light chain P44F_S131K. Description: SMCA: four chains co-expressed in CHO-3E7, protein A, LC-MS; competing light chain m16.
Assay [33] addresses Trastuzumab light chain P44F_Q124R_Q160K_T178R. The assay is described as above.

Like-named read-outs stand apart in the source and are kept apart here.

These results are taken from US11306156.

With “D3H44 Fab heterodimer, H1 L124E_L143E_K145T / L1 Q124K_V133G_S176R_T178K (H1L1 of LCCA sets 9308 and 9300)”, the Change in KD with respect to wild type (-(log(KD design) - log(KD wt))) in [1] was -0.12. Moreover, the equilibrium dissociation constant (Kd) in assay [2] is 0.21 nM.
In [3], “D3H44 full-length heavy chain D146G_Q179K (from UniProt P0DOX5 2-448)” displayed a % H1L1 Pairing (over all H1 species) of 100%.
In turn, “D3H44 full-length heavy chain H172R_S186R (from UniProt P0DOX5 2-448)” yielded a % H1L1 Pairing (over all H1 species) in [4] of 100%.
On to “D3H44 full-length heavy chain Q39R_S186R (from UniProt P0DOX5 2-448)”, for which the % H1L1 Pairing (over all H1 species) in assay [5] came out at 100%.
“D3H44 full-length heavy chain Q179K (from UniProt P0DOX5 2-448)” registered a % H1L1 Pairing (over all H1 species) in assay [6] of 100%.
Substance “D3H44 heavy chain D146G_Q179K (from UniProt P0DOX5 2-448)” came in with a % H1L1 Pairing (over all H1 species) in assay [7] of 100%.
Consider “D3H44 heavy chain H172R_S186R (from UniProt P0DOX5 2-448)”, for which the % H1L1 Pairing (over all H1 species) in assay [8] was determined as 100%.
In the case of “D3H44 heavy chain H172T_Q179K (from UniProt P0DOX5 2-448)”, the % H1L1 Pairing (over all H1 species) in [9] was found to be 100%.
The substance “D3H44 heavy chain L45P_K145T_H172R_Q179E (from UniProt P0DOX5 2-448)” showed a % H1L1 Pairing (over all H1 species) in assay [10] of 75.5%.
Consider “D3H44 heavy chain L45P_L143E_K145T (from UniProt P0DOX5 2-448)”, for which the % H1L1 Pairing (over all H1 species) in assay [11] turned out to be 88.1%.
On to “D3H44 heavy chain L124A_L143F_Q179K (from UniProt P0DOX5 2-448)”, for which, in assay [12], the % H1L1 Pairing (over all H1 species) amounted to 100% and the Change in % H1L1 Pairing (over all H1 species) with respect to wild type was 38.1%. Besides, in assay [13], the % H1L1 Pairing (over all H1 species) turned out to be 100%.
Regarding “D3H44 heavy chain L124E_H172T (from UniProt P0DOX5 2-448)”, the % H1L1 Pairing (over all H1 species) in [14] stood at 100%; in [15], 50.5%; in assay [16], 100%. Besides, the Change in % H1L1 Pairing (over all H1 species) with respect to wild type is 38.1% in assay [14] and 9.9% in [15].
Consider “D3H44 heavy chain L143E_K145T (from UniProt P0DOX5 2-448)”, for which the % H1L1 Pairing (over all H1 species) in [17] amounted to 83.2%; with D3H44 light chain Q124R, 91.5%.
As for “D3H44 heavy chain L143E_K145T_H172R (from UniProt P0DOX5 2-448)”, the % H1L1 Pairing (over all H1 species) in assay [18] stood at 100%.
On to “D3H44 heavy chain Q39E_K145T_Q179E (from UniProt P0DOX5 2-448)”, for which the % H1L1 Pairing (over all H1 species) in [19] was 100%.
As to “D3H44 heavy chain Q39R_S186R (from UniProt P0DOX5 2-448)”, in [20], the % H1L1 Pairing (over all H1 species) is 100%.
On to “D3H44 light chain Q124K_V133G_S176R_T178K”, for which the H1L1:H1L2 normalized median ratio in assay [21] was found to be 84%. This substance had an H1L1:H1L2 normalized median scalar value ln(r1/f1) in assay [21] of 1.67. Also, the H2L2:H2L1 normalized median ratio in assay [22] is 16%. Also, the median LCCA performance normalized to a L1:L2 DNA ratio of 1:1 (ratio H1-L1:H1-L2), H1-L1 share (ratio part of 100) in assay [23] was found to be 84; in [24] it was 85; in assay [25], 81; in assay [26], 88; in assay [27], 82; in [28] it was 63. Also, the median LCCA performance normalized to a L1:L2 DNA ratio of 1:1 (ratio H1-L1:H1-L2), H1-L1 share (ratio part of 100) was 85 in assay [30] and 79 in [31]. The median LCCA performance normalized to a L1:L2 DNA ratio of 1:1 (ratio H1-L1:H1-L2), H1-L2 share (ratio part of 100) in assay [29] stood at 16.
As for “Trastuzumab full-length heavy chain L45P_K145T_H172R_Q179E (from UniProt P0DOX5 2-448)”, in [32], the % H2L2 Pairing (over all H2 species) is 96.3%.
Turning to “Trastuzumab full-length heavy chain L45P_L143E_K145T (from UniProt P0DOX5 2-448)”, the % H2L2 Pairing (over all H2 species) in [33] was 94.8%.

For orientation: Kd means the equilibrium constant for the complex coming apart.
